From paper PMC5379953 (The Journal of Cell Biology, 2017) come the findings set out here.

To fix the notation:
B1: human Spindly^2–359::Strep-tag II (N-terminal coiled-coil region) (domain or fragment, UniProt Q96EA4 2-359, looked up)
chain: EADIITNLRCRLKEAEEERLKAAQYGLQLVESQNELQNQLDKCRNEMMTMTESYEQEKYTLQREVELKSRMLESLSCECEAIKQQQKMHLEKLEEQLSRSHGQEVNELKTKIEKLKVELDEARLSEKQLKHQVDHQKELLSCKSEELRVMSERVQESMSSEMLALQIELTEMESMKTTLKEEVNELQYRQEQLELLITNLMRQVDRLKEEKEEREKEAVSYYNALEKARVANQDLQVQLDQALQQALDPNSKGNSLFAEVEDRRAAMERQLISMKVKYQSLKKQNVFNREQMQRMKLQIATLLQMKGSQTEFEQQERLLAMLEQKNGEIKHLLGEIRNLEKFKNLYDSMESKPSVDSG

Assay [1] has as its target GST::LIC1::6×His, full-length dynein light intermediate chain 1 (residues 1–523) (human, UniProt Q9Y6G9 1-523). Kind of assay: pull-down.
For assay [2], the target named is B1. Kind of assay: pull-down.

For B1, the binding result in assay [1] was “binds”.

B2: GST::LIC1::6×His C-terminal region (residues 388–523) (domain or fragment, human, UniProt Q9Y6G9 388-523, looked up)
chain: PTAAGRPVDASPRVPGGSPRTPNRSVSSNVASVSPIPAGSKKIDPNMKAGATSEGVLANFFNSLLSKKTGSPGGPGVSGGSPAGGAGGGSSGLPPSTKKSGQKPVLDVHAELDRITRKPVTVSPTTPTSPTEGEAS
Take B2: the binding result in assay [2] is “binds”.

B3: human Spindly^2–359 F258A::Strep-tag II (domain or fragment, UniProt Q96EA4 2-359, looked up)
chain: EADIITNLRCRLKEAEEERLKAAQYGLQLVESQNELQNQLDKCRNEMMTMTESYEQEKYTLQREVELKSRMLESLSCECEAIKQQQKMHLEKLEEQLSRSHGQEVNELKTKIEKLKVELDEARLSEKQLKHQVDHQKELLSCKSEELRVMSERVQESMSSEMLALQIELTEMESMKTTLKEEVNELQYRQEQLELLITNLMRQVDRLKEEKEEREKEAVSYYNALEKARVANQDLQVQLDQALQQALDPNSKGNSLAAEVEDRRAAMERQLISMKVKYQSLKKQNVFNREQMQRMKLQIATLLQMKGSQTEFEQQERLLAMLEQKNGEIKHLLGEIRNLEKFKNLYDSMESKPSVDSG
Take B3: the binding result in assay [1] was “binds”.

B4: human BICD2^2–422::Strep-tag II (domain or fragment, UniProt Q8TD16 2-422, looked up)
chain: SAPSEEEEYARLVMEAQPEWLRAEVKRLSHELAETTREKIQAAEYGLAVLEEKHQLKLQFEELEVDYEAIRSEMEQLKEAFGQAHTNHKKVAADGESREESLIQESASKEQYYVRKVLELQTELKQLRNVLTNTQSENERLASVAQELKEINQNVEIQRGRLRDDIKEYKFREARLLQDYSELEEENISLQKQVSVLRQNQVEFEGLKHEIKRLEEETEYLNSQLEDAIRLKEISERQLEEALETLKTEREQKNSLRKELSHYMSINDSFYTSHLHVSLDGLKFSDDAAEPNNDAEALVNGFEHGGLAKLPLDNKTSTPKKEGLAPPSPSLVSDLLSELNISEIQKLKQQLMQMEREKAGLLATLQDTQKQLEHTRGSLSEQQEKVTRLTENLSALRRLQASKERQTALDNEKDRDSHEDG
As for B4, the binding result in assay [1] was “binds”.
